Experiment [1] addresses T1, recombinant human CTLA4 protein with human IgG1 Fc tag at the C-terminus (Acro biosystems, Cat#CT4-H5255) (human, UniProt P16410 37-162).
T1 construct: bought protein; also called human CTLA4-Fc; CTLA4-Fc; not shown: human IgG1 Fc tag at the C-terminus
T1 sequence (looked up): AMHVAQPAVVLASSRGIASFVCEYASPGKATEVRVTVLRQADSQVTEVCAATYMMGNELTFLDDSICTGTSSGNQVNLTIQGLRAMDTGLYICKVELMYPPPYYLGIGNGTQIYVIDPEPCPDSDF
Put plainly: cell based blocking FACS: antibody pre-mixed with human CTLA4-Fc, added to Daudi cells; blocked ligands: cell surface CD80/CD86. As to the method:
(§1) Daudi cells were harvested from cell culture flasks at the log phase, washed twice and re-suspended in PBS containing 2% v/v Fetal Bovine Serum (FACS buffer). […] Cells were washed twice and re-suspended in FACS buffer. Fluorescence was measured using a Becton Dickinson FACS Canto II-HTS equipment. Data was analyzed using Graphpad Prism software and IC₅₀ values were reported.

For experiment [2], the target named is T1, recombinant human CTLA4 protein with …. The experiment in a line: competitive ELISA: antibody pre-mixed with biotin human CTLA4-Fc, added to plate coated with the benchmark; competitor: coated Yervoy. The protocol: Plates were washed once with wash buffer, blocked with 200 µl PBST with 5% w/v non-fatty milk, incubated for 2 hours at 37° C., and washed 4 times.
After incubation at 37° C. for 40 minutes, plates were washed 4 times again using wash buffer. Then the plates were added and incubated with 100 µl/well streptavidin conjugated HRP (1:10000 dilution in PBST, Jackson Immuno Research, Cat#016-030-084, 100 µl/well) for 40 minutes at 37° C. Plates were finally washed using wash buffer. Finally, TMB was added and the reaction was stopped using 1M H₂SO₄, and the absorbance of the each well was read on a microplate reader using dual wavelength mode with 450 nm for TMB and 630 nm as the reference wavelength, then the OD (450-630) values were plotted against antibody concentration. Data was analyzed using Graphpad Prism software and IC₅₀ values were reported.
(§2) In the capture ELISA assay, the 96-well micro plates were coated with 2 µg/ml goat anti-human IgG (AffiniPure Goat Anti-Human IgG, F(ab′)₂ fragment specific, Jackson Immunoresearch, Cat#109-005-097) instead of the goat anti-mouse IgG F(ab′)₂ fragment, 100 µl/well.

Experiment [3] shares this target. The experiment in a line: capture ELISA: antibody captured on anti-mouse IgG F(ab')2 coated plate, biotin human CTLA4-Fc 26 ng/ml, streptavidin-HRP, OD(450-630). On the technique in general: ELISA stands for enzyme-linked immunosorbent assay.
Experiment [4] has the same target. The experiment in a line: cell-based or functional assay.
For experiment [5] the target is unchanged. The experiment in a line: capture ELISA (plate coated with goat anti-human IgG F(ab')2 per paragraph 181), biotin human CTLA4-Fc, streptavidin-HRP, OD(450-630). The protocol:
Plates were washed once with wash buffer (PBS+0.05% v/v Tween-20, PBST) and then blocked with 200 µl/well blocking buffer (PBST with 5% w/v non-fatty milk) for 2 hours at 37° C. […] After a final wash, plates were incubated with 100 µl/well substrate TMB (Innoreagents, Cat#TMB-S-002). The reaction was stopped in 15 minutes at room temperature with 50 µl/well 1M H₂SO₄, and the absorbance of the each well was read on a microplate reader using dual wavelength mode with 450 nm for TMB and 630 nm as the reference wavelength, then the OD (450-630) values were plotted against antibody concentration. Data was analyzed using Graphpad Prism software and EC₅₀ values were reported.
as §2

For experiment [6], the target named is T2, recombinant human CTLA4-his protein (Acro biosystems, Cat#CT4-H5229) (human, UniProt P16410 37-162).
T2 construct: bought recombinant protein; not shown: his tag
T2 sequence (looked up): T1 sequence (looked up)
The experiment in a line: SPR, Biacore T200; antibody captured, CTLA4-his as analyte. The protocol: (§3) Un-reacted moieties on the biosensor surface were blocked with ethanolamine. […] The antigen-antibody association kinetics was followed for 2 minutes and the dissociation kinetics was followed for 10 minutes. The association and dissociation curves were fit to a 1:1 Langmuir binding model using BIAcore evaluation software.
For orientation: Surface plasmon resonance follows binding to a sensor surface in real time, without labels.

The target of experiment [7] is T3, cynomolgus monkey CTLA4-his protein (Acro biosystems, Cat#CT4-C5227) (cynomolgus monkey, UniProt G7PL88 36-161).
T3 construct: bought recombinant protein; also called Cynomolgus CTLA4-his; not shown: his tag
T3 sequence: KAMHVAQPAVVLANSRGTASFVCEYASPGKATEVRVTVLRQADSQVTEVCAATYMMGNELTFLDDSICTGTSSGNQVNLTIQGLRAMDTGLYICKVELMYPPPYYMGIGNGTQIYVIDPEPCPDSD
The experiment is described as above. The protocol: as §3

Experiment [8] has as its target T1, recombinant human CTLA4 protein with …. Put plainly: capture ELISA: antibody captured on coated plate (anti-human IgG Fc for the chimeric antibodies), biotin human CTLA4-Fc, streptavidin-HRP, OD(450-630).
For experiment [9] the target is unchanged. The experiment in a line: cell based blocking FACS: antibody pre-mixed with human CTLA4-Fc, added to Daudi cells; blocked ligands: cell surface CD80/CD86. The source holds these as a separate data set.
Experiment [10] shares this target. Put plainly: cell-based or functional assay. The source holds these as a separate data set.
The target is the same in experiment [11]. Put plainly: competitive ELISA: antibody pre-mixed with biotin human CTLA4-Fc (65 ng/ml), added to plate coated with the benchmark; competitor: coated Yervoy.
For experiment [12] the target is unchanged. Put plainly: cell based blocking FACS: antibody pre-mixed with human CTLA4-Fc (1 ug/mL), added to Daudi cells; blocked ligands: cell surface CD80/CD86. The protocol:
as §1

Experiment [13] concerns the target T2, recombinant human CTLA4-his protein …. Put plainly: BLI, Octet RED96; antibody on AHC sensor, CTLA4-his as analyte. The protocol:
(§4) Briefly, AHC biosensors (anti-human IgG Fc capture, from ForteBio) were presoaked with 10 mM glycine (pH 1.5) for 3 seconds, and then dipped in a well with running buffer (0.5% w/v BSA in PBST) for 3 seconds, the soaking and dipping steps were repeated for three times. […] A new baseline was run for 180 seconds in another well with running buffer. […] Finally, sensors were presoaked with 10 mM glycine (pH 1.5) for 3 seconds, and then were dipped in a well with running buffer for 3 seconds, the soaking and dipping steps repeated for three times. The association and dissociation curves were fit to a 1:1 Langmuir binding model using ForteBio Data Analysis 8.1.
On the technique in general: BLI is a label-free optical method that tracks binding on a fibre tip over time.

Experiment [14] has the same target. The experiment in a line: BLI, Octet; antibody at 5 ug/ml on AHC sensor, CTLA4-his as analyte. The protocol:
as §4

The target is the same in experiment [15]. Put plainly: SPR, Biacore; antibody captured on anti-human IgG CM5 chip, CTLA4-his as analyte. The protocol: (§5) Un-reacted moieties on the biosensor surface were blocked with ethanolamine. […] The antigen-antibody association kinetics was followed for 2 minutes and the dissociation kinetics was followed for 10 minutes. The association and dissociation curves were fit to a 1:1 Langmuir binding model using BIAcore evaluation software. […]

Experiment [16] has as its target T3, cynomolgus monkey CTLA4-his protein …. The description is as above. As to the method:
as §5

The target of experiment [17] is T2, recombinant human CTLA4-his protein …. Put plainly: BLI, Octet; antibody from cell supernatant on AHC sensor, CTLA4-his as analyte.

Substitutions are numbered along the chain they refer to. Where two headings read alike, the source gives them in different places.

B1: mouse anti-CTLA4 monoclonal antibody D1D5 (antibody, V domains shown)
VH: EVKLVESGGGLVKPGGSLKLSCAASGFTFSDYGMAWVRQAPGKGPEWVAFISNLAYSVYYADTETGRFTISREDAKNTLYLEMSSLRSEDTAMYYCARSGLPYAMDYWGQGTSVTVSS
VL: DIQMTQTTSSLSASLGDRVTISCRASQDISNYLNWYQQKPDGTVKLLIYYISRLHSGVPSRFSGSGSGTDFSLTISNLEQEDIATYFCQQGRMLPWTFGGGTRLEIK
notes: mouse mAb purified from hybridoma supernatant
Consider B1, for which the IC50 (commonly the concentration that gives 50% inhibition) came to 5.82 nM in experiment [1]; 5.75 nM in [2]; 9.67 nM in experiment [9]; 0.646 nM in [11]; 4.77 nM in experiment [12]. In addition, the EC50 (as a rule, the concentration needed to bring the measured effect to its halfway point) in experiment [3] came out at 0.103 nM; in [5] it was 0.778 nM; in experiment [8] it was 0.632 nM. Also, the “EC50 of IL-2 release (GS-J1 T cells + GS-C1/CD80 cells + human CTLA4-Fc, IL-2 HTRF)” value (“EC50 of IL-2 release” for short) in experiment [4] came out at 42.3 nM; in experiment [10] it was 37.5 nM. Further, the Kd (usually the constant that tells how readily two partners part at equilibrium) in experiment [6] stood at 1.89 nM; in experiment [7], 4.67 nM. Moreover, the koff (commonly the rate constant with which the complex falls apart) in experiment [6] was determined as 0.000276 s⁻¹; in [7] it was 0.00047 s⁻¹. Also, the kon (as a rule, the rate constant with which the complex forms) in [6] was 146000 M⁻¹ s⁻¹; in [7], 101000 M⁻¹ s⁻¹.

B2: chimeric D1D5 anti-CTLA4 antibody (antibody, human IgG4 S228P, kappa, V domains shown)
VH: B1 VH
VL: DIQMTQTTSSLSASLGDRVTISCRASQDISNYLNWYQQKPDGTVKLLIYYISRLHSGVPSRFSGSGSGTDFSLTISNLEQEDIATYFCQQGRMLPWTFGGGTRLEIKR
notes: mouse variable domains on human IgG4/kappa, made in 293F cells
Turning to B2, the IC50 in experiment [1] came out at 6 nM; in [2] it was 0.785 nM; in [9], 12.6 nM. The “EC50 of IL-2 release” value in [4] was determined as 82.1 nM. In addition, the half-maximal effective concentration (EC50) in [5] was 0.575 nM; in experiment [8] it was 0.992 nM. Also, the equilibrium dissociation constant (Kd) in [13] is 5.32 nM; in [14], less than 0.001 nM; in experiment [15], 1.93 nM; in experiment [16], 0.968 nM. Further, the koff in experiment [13] is 0.00166 s⁻¹; in [14], less than 1e-07 s⁻¹; in [15], 0.000404 s⁻¹; in experiment [16] it was 0.000505 s⁻¹. Moreover, the kon turned out to be 312000 M⁻¹ s⁻¹ in experiment [13], 132000 M⁻¹ s⁻¹ in [14], 209000 M⁻¹ s⁻¹ in [15] and 521000 M⁻¹ s⁻¹ in experiment [16].

B3: huD1D5-V9 (antibody, human IgG4 S228P, kappa, V domains shown)
VH: B1 VH with K3Q, K19R, E73D, T78S, E82Q, S84N, S88A, M93V, S113T
VL: DIQMTQSPSSLSASVGDRVTITCRASQDISNYLNWYQQKPGKVPKLLIYYISRLHSGVPSRFSGSGSGTDFTLTISSLQPEDVATYYCQQGRMLPWTFGGGTKVEIKR
notes: humanized IgG4/kappa; cell supernatant on Octet, purified antibody in Biacore, ELISA, FACS and the functional assay; also called hu CTLA4 D1D5-V9; huDID5-V9
Take B3: the IC50 amounted to 5.53 nM in experiment [1] and 0.642 nM in [2]. Further, the “EC50 of IL-2 release” value in [4] is 27.3 nM. Besides, the concentration for a half-maximal effect (EC50) in [5] is 0.516 nM. Also, the dissociation constant Kd in experiment [17] turned out to be 4.37 nM; in experiment [15], 3.02 nM; in experiment [16], 2.13 nM. In addition, the dissociation rate constant (koff) stood at 0.000471 s⁻¹ in experiment [17], 0.000519 s⁻¹ in experiment [15] and 0.000576 s⁻¹ in experiment [16]. Also, the figures for the kon in experiment [17], in experiment [15] and in [16] were 108000 M⁻¹ s⁻¹, 172000 M⁻¹ s⁻¹ and 271000 M⁻¹ s⁻¹, respectively.

Values taken from patent US20230212304A1 (BIOSION, published 2023).
